Test results: the supplement of paper PMC10724198
± gives the standard deviation of the averaged measurements.

What was measured:
[1] = test system: Saccharomyces cerevisiae; assay: protein stability index of tFT-peptide fusion (C-terminal peptide) (PSI (0-1 scale)); higher = more stable (slower turnover)
Method: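 MPS profiling in S. cerevisiae of the tFT-X12 degron library: putative degron peptides plus stable controls, 12 aa, fused to the C-terminus of a sfGFP-mCherry timer. Cells are FACS-sorted into 8 mCherry/sfGFP bins and deep-sequenced. PSI runs from 0 (unstable) to 1 (stable). Backgrounds are wild type, das1Δ and doa10Δ at 30 °C, and wild type, das1Δ, cdc34-1 and cdc53-1 at 37 °C; 2-3 technical replicates each.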

[2] = test system: Saccharomyces cerevisiae; assay: as above; conditions: genetic background: wild type; temperature: 30 C
[3] = genetic background: cdc34-1, temperature: 37 C
[4] = genetic background: cdc53-1, temperature: 37 C
[5] = genetic background: das1 deletion, temperature: 30 C
[6] = genetic background: das1 deletion, temperature: 37 C
[7] = genetic background: doa10 deletion, temperature: 30 C
[8] = genetic background: wild type, temperature: 30 C
[9] = genetic background: wild type, temperature: 37 C
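Note: PSI is a weighted mean of sequencing reads over stability bins, variants kept only with over 10 reads, mCherry proximal and sfGFP distal, peptide attached via GGGS linker.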

| Sequence | protein stability index [1, 3] | protein stability index [1, 4] | protein stability index [1, 5] | protein stability index [1, 6] | protein stability index [1, 7] | protein stability index [1, 8] | protein stability index [1, 9] | protein stability index [2] |
| --- | --- | --- | --- | --- | --- | --- | --- | --- |
| YNTVALRITLIT | 0.444 ± 0.017 | 0.538 ± 0.013 | 0.329 ± 0.05 | 0.5018 ± 0.0042 | 0.209 ± 0.00078 | 0.228 ± 0.017 | 0.364 ± 0.0086 | 0.348 ± 0.03 |
| PRFWFYLSYSVH | 0.429 ± 0.044 | 0.514 ± 0.012 | 0.373 ± 0.044 | 0.533 ± 0.015 | 0.3014 ± 0.0016 | 0.344 ± 0.02 | 0.493 ± 0.01 | 0.431 ± 0.032 |
| VIAFFSVLKRYV | 0.641 ± 0.0088 | 0.704 ± 0.011 | 0.58 ± 0.037 | 0.712 ± 0.0078 | 0.199 ± 0.0083 | 0.241 ± 0.0073 | 0.465 ± 0.0052 | 0.421 ± 0.016 |
| LLFPRVLVLCFS | 0.034 ± 0.011 | 0.0512 ± 0.0018 | 0.124 ± 0.037 | 0.154 ± 0.0093 | 0.105 ± 0.016 | 0.117 ± 0.024 | 0.116 ± 0.012 | 0.183 ± 0.029 |
| FCFYLLFLGFTR | 0.475 ± 0.035 | 0.512 ± 0.042 | 0.364 ± 0.027 | 0.546 ± 0.053 | 0.37 ± 0.01 | 0.324 ± 0.018 | 0.523 ± 0.029 | 0.431 ± 0.011 |
| LYFLLGSLVFVF | 0.366 ± 0.0083 | 0.417 ± 0.015 | 0.273 ± 0.035 | 0.506 ± 0.014 | 0.244 ± 0.0021 | 0.275 ± 0.019 | 0.461 ± 0.031 | 0.392 ± 0.0081 |
| IKTKGRYKKQRT | 0.632 ± 0.051 | 0.709 ± 0.01 | 0.679 ± 0.049 | 0.743 ± 0.037 | 0.34 ± 0.018 | 0.376 ± 0.058 | 0.572 ± 0.045 | 0.408 ± 0.014 |
| WFSVIMLCYILP | 0.204 ± 0.023 | 0.22 ± 0.028 | 0.23 ± 0.042 | 0.3397 ± 0.0018 | 0.233 ± 0.027 | 0.198 ± 0.014 | 0.248 ± 0.036 | 0.253 ± 0.004 |
| SFCVLLQFCVLV | 0.412 ± 0.0095 | 0.432 ± 0.0084 | 0.351 ± 0.021 | 0.461 ± 0.011 | 0.336 ± 0.0041 | 0.3381 ± 0.0012 | 0.4258 ± 0.0029 | 0.0186 ± 0.026 |
| EGALSGGGKTSG | 0.643 ± 0.045 | 0.719 ± 0.019 | 0.634 ± 0.016 | 0.7181 ± 0.0047 | 0.636 ± 0.014 | 0.631 ± 0.012 | 0.692 ± 0.018 | 0.651 ± 0.24 |
| HSPRVLLPLYFR | 0.199 ± 0.064 | 0.133 ± 0.013 | 0.301 ± 0.035 | 0.365 ± 0.033 | 0.672 ± 0.02 | 0.278 ± 0.037 | 0.328 ± 0.021 | 0.378 ± 0.086 |
| KLLDHFVKIRVY | 0.164 ± 0.021 | 0.2 ± 0.0077 | 0.225 ± 0.044 | 0.416 ± 0.0072 | 0.0632 ± 0.0066 | 0.0674 ± 0.024 | 0.0534 ± 0.03 | 0.0988 ± 0.0069 |
| FSVRLCLFVWGC | 0.399 ± 0.036 | 0.481 ± 0.033 | 0.341 ± 0.028 | 0.4684 ± 0.004 | 0.305 ± 0.0062 | 0.317 ± 0.015 | 0.4483 ± 0.0025 | 0.436 ± 0.1 |
| VCTFLLVSFFLS | 0.223 ± 0.0027 | 0.315 ± 0.064 | 0.237 ± 0.028 | 0.423 ± 0.012 | 0.186 ± 0.019 | 0.185 ± 0.017 | 0.33 ± 0.0099 | 0.326 ± 0.017 |
| RLGIRCLYLRFI | 0.406 ± 0.1 | 0.422 ± 0.052 | 0.482 ± 0.059 | 0.5974 ± 0.0019 | 0.25 ± 0.015 | 0.216 ± 0.035 | 0.363 ± 0.016 | 0.306 ± 0.011 |
| RLVIFITRYLIS | 0.337 ± 0.043 | 0.488 ± 0.066 | 0.349 ± 0.044 | 0.562 ± 0.015 | 0.116 ± 0.03 | 0.162 ± 0.016 | 0.275 ± 0.0028 | 0.2581 ± 0.00054 |
| TLDWKFGRGGIG | 0.315 ± 0.0073 | 0.4083 ± 0.0019 | 0.348 ± 0.017 | 0.406 ± 0.017 | 0.33 ± 0.0094 | 0.338 ± 0.01 | 0.4041 ± 0.0037 | 0.375 ± 0.0046 |
| LGLCFFFYSLHS | 0.539 ± 0.064 | 0.58 ± 0.037 | 0.411 ± 0.041 | 0.586 ± 0.013 | 0.37 ± 0.0054 | 0.401 ± 0.016 | 0.599 ± 0.057 | 0.462 ± 0.0096 |
| FFFFSVHLSFLD | 0.122 ± 0.0052 | 0.295 ± 0.018 | 0.178 ± 0.04 | 0.365 ± 0.029 | 0.179 ± 0.0073 | 0.176 ± 0.028 | 0.305 ± 0.024 | 0.31 ± 0.013 |
